The target of data set [1] is ArdK from plasmid R388 containing a C-terminal His tag (ArdKHT) (plasmid R388). Kind of data set: SEC; S75 gel filtration of the purified protein in solution. (In general: In gel filtration, larger molecules generally elute earlier.)
Data set [2] concerns the target T1, ArdK (SeMet, ArdKHT) (plasmid R388 (expressed in E. coli …, UniProt Q6I6B7 1-107)).
T1 sequence: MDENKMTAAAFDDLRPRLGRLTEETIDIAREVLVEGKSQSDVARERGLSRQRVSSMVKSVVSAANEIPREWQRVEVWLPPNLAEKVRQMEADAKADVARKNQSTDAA
Kind of data set: X-ray crystallography (2.8 A); crystal structures only; protein in 20 mM Tris pH 7.5, 150 mM NaCl, 1 mM DTT, 1 mM EDTA (gel filtration buffer); complex and crystallization conditions not in the material. The following applies: protein: recombinant; tags: C-terminal His; chain copies: 2; blunt.

Data set [3] deals with T2, ArdK (ArdKHT) (plasmid R388 (expressed in E. coli …, UniProt Q6I6B7 1-107)).
T2 sequence: T1 sequence
Kind of data set: X-ray crystallography (2.6 A); crystal structures only; protein in 20 mM Tris pH 7.5, 150 mM NaCl, 1 mM DTT, 1 mM EDTA (gel filtration buffer); complex and crystallization conditions not in the material. The following applies: protein: recombinant; tags: C-terminal His; chain copies: 2; blunt.

As for “ArdK from plasmid R388 containing a C-terminal His tag (ArdKHT) (natural protein)”, the stoichiometry N (commonly the number of molecules, sites or subunits per partner or assembly) in data set [1] came out at 2.

B1: DR operator, Pssb (DR_1/DR_2) (dsDNA)
DNA 1: GTATTGACACCTATTGACA
DNA 2: TGTCAATAGGTGTCAATAC
Consider B1, for which the binding result in data set [2] was “binds”.

B2: IR operator, n = 3 spacer (IR_1/IR_2) (dsDNA)
DNA 1: GTAATGTCAATATTTGACA
DNA 2: TGTCAAATATTGACATTAC
As for B2, the binding result in data set [3] is “binds”.
